According to publication PMC5764400, “Biophysical insights from a single chain camelid antibody directed against the Disrupted-in-Schizophrenia 1 protein” (PLoS ONE, 2018):

B1: anti-DISC1 VHH B5 antibody (VHH)
VHH: QVKLEESGGGLVQAGGSLRLSCAASGTLFSISVMGWYRQAPGMQRELVGSITDGGSTIYGDSVKGRFAISKDNAKRTIYLQMNSLKPEDTAVYYCNYRRLTSNYWGQGTQVTVSS
notes: Selected by phage display from an immunised llama; the homology model holds residues 1-120; PDB 3EZJ chain B is only the template of the homology model, not this VHH; also called clone B5; VHH domain B5; source: E. coli BL21 Rosetta (pET-22b, periplasm), purified (Ni2+-NTA, SEC)
B2: human DISC1 fragment comprising residues 691-836 (C region) (domain or fragment, UniProt Q9NRI5 691-836, looked up)
chain: WEADLEACRLLIQSLQLQEARGSLSVEDERQMDDLEGAAPPIPPRLHSEDKRKTPLKVLEEWKTHLIPSLHCAGGEQKEESYILSAELGEKCEDIGKKLLYLEDQLHTAIHSHDEDLIQSLRRELQMVKETLQAMILQLQPAKEAG
notes: also called DISC1 C region; source: E. coli BL21 AI (pESPRIT002), purified (Ni2+-NTA, SEC); not shown: His tag, N-terminal, kept
B3: human DISC1 fragment 480-721 (domain or fragment, UniProt Q9NRI5 480-721, looked up)
chain: EAKDQQLRREIEEQEQQLQWQGCDLTPLVGQLSLGQLQEVSKALQDTLASAGQIPFHAEPPETIRSLQERIKSLNLSLKEITTKVCMSEKFCSTLRKKVNDIETQLPALLEAKMHAISGNHFWTAKDLTEEIRSLTSEREGLEGLLSKLLVLSSRNVKKLGSVKEDYNRLRREVEHQETAYETSVKENTMKYMETLKNKLCSCKCPLLGKVWEADLEACRLLIQSLQLQEARGSLSVEDERQ
notes: Disrupted-in-Schizophrenia 1 (DISC1), human, UniProtKB Q9NRI5, residues 480-721; same vector as m3; also called DISC1^480-721; source: E. coli BL21 AI (pESPRIT002), purified (Ni2+-NTA, SEC)
B4: human DISC1 fragment 598-715 (domain or fragment, UniProt Q9NRI5 598-715, looked up)
chain: GNHFWTAKDLTEEIRSLTSEREGLEGLLSKLLVLSSRNVKKLGSVKEDYNRLRREVEHQETAYETSVKENTMKYMETLKNKLCSCKCPLLGKVWEADLEACRLLIQSLQLQEARGSLS
notes: same vector as m3; source: E. coli BL21 AI (pESPRIT002), purified (Ni2+-NTA, SEC)
B5: full length human DISC1 (natural protein, UniProt Q9NRI5 1-854, looked up)
chain: MPGGGPQGAPAAAGGGGVSHRAGSRDCLPPAACFRRRRLARRPGYMRSSTGPGIGFLSPAVGTLFRFPGGVSGEESHHSESRARQCGLDSRGLLVRSPVSKSAAAPTVTSVRGTSAHFGIQLRGGTRLPDRLSWPCGPGSAGWQQEFAAMDSSETLDASWEAACSDGARRVRAAGSLPSAELSSNSCSPGCGPEVPPTPPGSHSAFTSSFSFIRLSLGSAGERGEAEGCPPSREAESHCQSPQEMGAKAASLDGPHEDPRCLSRPFSLLATRVSADLAQAARNSSRPERDMHSLPDMDPGSSSSLDPSLAGCGGDGSSGSGDAHSWDTLLRKWEPVLRDCLLRNRRQMEVISLRLKLQKLQEDAVENDDYDKAETLQQRLEDLEQEKISLHFQLPSRQPALSSFLGHLAAQVQAALRRGATQQASGDDTHTPLRMEPRLLEPTAQDSLHVSITRRDWLLQEKQQLQKEIEALQARMFVLEAKDQQLRREIEEQEQQLQWQGCDLTPLVGQLSLGQLQEVSKALQDTLASAGQIPFHAEPPETIRSLQERIKSLNLSLKEITTKVCMSEKFCSTLRKKVNDIETQLPALLEAKMHAISGNHFWTAKDLTEEIRSLTSEREGLEGLLSKLLVLSSRNVKKLGSVKEDYNRLRREVEHQETAYETSVKENTMKYMETLKNKLCSCKCPLLGKVWEADLEACRLLIQSLQLQEARGSLSVEDERQMDDLEGAAPPIPPRLHSEDKRKTPLKVLEEWKTHLIPSLHCAGGEQKEESYILSAELGEKCEDIGKKLLYLEDQLHTAIHSHDEDLIQSLRRELQMVKETLQAMILQLQPAKEAGEREAAASCMTAGVHEAQA
notes: Disrupted-in-Schizophrenia 1 (DISC1), human, UniProtKB Q9NRI5; source: NLF human neuroblastoma cells, transfected, in lysate

What was measured:
[1] = target: B2; assay: SPR; Biacore T200, 25°C, PBS/0.05% Tween-20 pH 7.4; DISC1^691-836 amine-coupled to a CM5 chip (250 RU); VHH B5 19 nM to 1.5 uM injected in a single cycle; response levels against concentration fitted with Langmuir 1:1 model; conditions: both partners purified
[2] = target: B2; assay: SEC + SPR; stoichiometry of the DISC1^691-836 - VHH B5 complex as supported by the SEC and SPR results; conditions: both partners purified
[3] = target: T1, anti-DISC1 human Fc-VHH antibody (VHH B5 fused to human Fc) (Lama glama); assay: far-Western, overlay or dot blot; western blot of purified His-tagged DISC1 truncation constructs probed with the VHH-Fc (conditioned medium) and an anti-human secondary antibody; conditions: one partner purified
T1 construct: as the VHH of m1; also called VHH-Fc; VHH–Fc antibody; not shown: Fc (human), C-terminal, kept

[4] = target: T1, anti-DISC1 human Fc-VHH antibody (VHH …); assay: far-Western, overlay or dot blot; western blot of lysates of NLF neuroblastoma cells transfected with human DISC1 or mouse Disc1, probed with the VHH-Fc (conditioned medium); conditions: partners not purified

| Binder | binding result [3] | further results |
| --- | --- | --- |
| B1 |  | Kd [1]: 139 nM; stoichiometry N [2]: 1 |
| B2 | binds |  |
| B3 | binds |  |
| B4 | binds |  |
| B5 |  | binding result [4]: binds |
